Protein production data for eleven sequences are collected here from a protein production outcome set (Wang et al. 2014).

The nature of this series: label from the status in PepcDB records.

On to “AADPVVVPANMEPLTIEGNRFVTLCIMIRTTPWEVSRDVKLHPRDEVDWHTLEGVRALREAFATNNPNGRLTWGFTMNALEDGRKNYREIRDYVVECQKKYGDEVTYFPGYFPAMYLPRERVNREMSEAIEIISKMVGNGYRPQSIMGGFLSADNLRYLAEKENIHVAHAVIWSQHNIDGGGADGSPSYPFYPSTEHFCKPAQGKSDFIDCVNLDGWTMDFICARRSGQTGHGIDGYNSRRGVGPIETYKGWGLDLGHREVMHTEAIHFDKGLELNGFGWVANIWEAQMVHEFGKDLICDAMKMWVTGTKERWPDTHFVTFGEFGELWRKQYKSNDDWNYRFVERGSGLGDSYNNLEIKWFMNKEFRLALLRDWHTKNSPAYVIDFTRYDLQAHEPADPSPEKPAKDWSLINKINQKALRPQDKPVLIDKLEKEDQDLIRKYYPELLK”, for which the protein production entry is listed as “not failed”.
In the case of “AAGIDQYALKEFTADFTQFHIGDTVPAMYLTPEYNIKQWQQRNLPAPDAGSHWTYMGGNYVLITDTEGKILKVYDGEIFYHR”, the protein production result is “not failed”.
Regarding “AAGSENTNYFISLEQGEFVLTLVERGPVQEMPFFIELLDVLHDANLPVPYALRTTDGQALRELAGKPALLQPRLPGKHISEPNTQHCVQIGELLANLHLATREQVLERKTDRGLDWMLSEGRNFLSHLGETQRALLEKSLQEIEDLKPQIMALPRANLHADLFRDNVLFEGTHLTGLIDFYNACSGPMLYDLAIALNDWCSRENG”, the protein production result was “failed”.
With “AAKGNMQCNIFVPAGTSKGKTTQTRLYGANCIEVEGTREDVALAAIESSVTHGSHYVGHNWHPLFIEGVKSIAYEIWEQCGYKAPDNFVVPAGNGSLLAGAYIGFSELLKGGEISKLPRLFGIQSESIQPFVQTFNNKEINITSEDTIAEGIKIKRSSRMNEIVQFVKETNGNFISVNEQQIQSALKEMGAQGYFIEPTSATAFAGIAQLIKTQEIKPDELTVGVVTGNGLKATNSIEHLI”, the protein production entry is “failed”.
The entry for “AATDIHVHFRTPGETEKEDFGSGSLSAIYGGTTYVMDMPNNRFPITDYNAFGDKLGSIDSTSFADFSLYSMETGKNAMLLDRRSIGLKVYLGGSTNSTGTEVIEEGDIRKINEMNYPVVFHGESERCLKTHQMEEKNLRDHNLARPIDCEIEAAKYVSGLDIKTKIMAHVSSPDVTGNFLREVTPHHLLLNDEMPLGSFGKVNPPLRDSRTQKRLLDDYISGKFDILSSDHAPHTEDDKREFEFAKSGIIGVETRVPLFLALAQKKIVPLDVLYRTAIENPPSIFGIKKGKIEIGYDADFMVIDFTSMKRINDNRLHSKFPVSPFNGMDAI” is “failed”; for “ACDNDTEPGGTAVEKMAGDWWVTVNAFIDGKEVEDPFGAGHLQMSTYNTASNSETEMWLDDLGNFWEYKLKVNVNYAARTFSTTGFVDNVTYESKVKITDGKVLEKAATTPSGMPADSIVYMVQFDDDEDGLTYKVSGFRRTGFPADDF” it is “not failed”.
The entry for “ACTQPSDWVPPAKNDALVIALKKVIGGRLSDAFHIRDKLQRRDAIAAVKDDVIQQLAGRLEVEGWNLAELLKEFGELEYRTMRDALLDTKVRIDGRSLEAVRP” is “not failed”; for “ADDFAMEMGLACVVCRQMTVASGNQLVECQECHNLYHQDCHKPQVTDKEVNXPSRGVVLCPGTRQMKRMAQKNQK” it is “not failed”.
To “ADELVMSNLHSKENYDKYSEPRGYPKGERSLNFEELKDWGPKNVIKMSTPAVNKMPHSFANLPLRFGRNVQEERSAGATANLPLRSGRNMEVSLVRRVPNLPQRFGRTTTAKSVCRMLSDLCQGSMHSPCANDLFYSMTCQHQEIQNPDQKQSRRLLFKKIDDAELKQEK” belongs “failed”; to “ADLGRKITSALRSLSNATIINEEVLNAMLKEVCTALLEADVNIKLVKQLRENVKSAIDLEEMASGLNKRKMIQHAVFKELVKVKVY”, “not failed”.
Consider “ADNRAKKHGHADLSIYREWVDEHPTVFTGYDELTTDSKVLGLLSAGNKVNEIKAGEEVEVILEASPLYAEAGGQLGDRGQILMGDTVLKVNDVQKIGKKLWVHKATVAQGGLSVGDVVTAQVDSDWRHAARQAHTGTHLIHAALRQVLGPTAVQAGSMNKPGYLRFDFNYTESLTPRQLEEIQNITNQAVDSDWDVNTIETSLEEAKAMGALALFGENYGSEVRVIEVGGPFSIELCGGTHVTHSSQIGPVAILGESSVGSGVRRIEAYTGLDSFKYLAKEQALVENIASSMKVKPEELPDRIAALTQKLKDAEKAIADMRSAQLMAQATGLVAGAIEVNGVKLVAQRVSDVENMGDLRSLAADIKQRLDDVPAVVALVGEDASGKAPFVVGATKAAVSAGYKANAYAKILGQYIEGNGGGKPDMAQGSARNSSGFDQGIAAVKAEMSA”, for which the protein production entry is “failed”.
